Assay results: patent US20210214460A1 (AstraZeneca / MedImmune, published 2021)

T1: monomeric human sBCMA (GenScript) (human, UniProt Q02223 1-54)
T1 construct: extracellular domain; also called monomeric BCMA; monomeric (soluble) BCMA
T1 sequence (looked up): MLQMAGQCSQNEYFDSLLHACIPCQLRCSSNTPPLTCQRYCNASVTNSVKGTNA

T2: membrane-bound human BCMA (human, UniProt Q02223 1-184)
T2 construct: whole, on cells; also called huBCMA
T2 sequence (looked up): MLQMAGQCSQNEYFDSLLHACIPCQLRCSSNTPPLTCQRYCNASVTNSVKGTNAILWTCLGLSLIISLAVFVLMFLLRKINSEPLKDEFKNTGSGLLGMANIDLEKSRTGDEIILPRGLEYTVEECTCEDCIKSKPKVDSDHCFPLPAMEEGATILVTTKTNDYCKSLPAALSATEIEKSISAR


Assays:
[1] = target: T1, monomeric human sBCMA (GenScript); experiment: SPR (ProteOn XPR36), antibody captured by anti-Fc, sBCMA 100-6.25 nM as analyte
Description: The binding of 15B2GL monoclonal antibody and optimized clones I09, L15, P10, N22, and M02 (described in Example 1) was assessed using monomeric human sBCMA (GenScript, Piscataway, N.J.) using a ProteOn™ XPR36 instrument (Bio-Rad, Hercules, Calif.). The binding of J6M0 also was assessed for comparison. Standard amine coupling was used to immobilize 25 μg/ml anti-Fc polyclonal antibody (Jackson ImmunoResearch, West Grove, Pa.) prepared in 10 mM sodium acetate buffer (pH 4.5) to the surface of a ProteOn™ GLC biosensor chip (Bio-Rad, Hercules, Calif.) pre-activated with 20 mM EDAC (1-ethyl-3-(3-dimethylaminopropyl)carbodiimide hydrochloride) and 5 mM Sulfo-NHS (N-hydroxysulfosuccinimide) at a density of ˜200-600 resonance units (RU). 15B2GL, I09, L15, P10, N22, M02, and J6M0 were subsequently injected at a concentration of 1 μg/ml for capture by the immobilized anti-Fc polyclonal antibody. The sensorgram was recorded by flowing two-fold serial dilutions of sBCMA prepared in PBS (pH 7.4) with 0.005% (v/v) Tween®-20, ranging from 100-6.25 nM, over the captured surface for 150 seconds at 75 μL/minute with dissociation time of 600 seconds. ProteOn™ data analysis software was used to analyze the data.

[2] = target: T2, membrane-bound human BCMA; experiment: flow cytometry on MM.1S cells (endogenous BCMA), printed as apparent affinity
Description: (§1) Binding of 15B2GL, I09, L15, and J6M0 to membrane-bound human BCMA was evaluated using flow cytometry in multiple myeloma and plasma cell leukemia cell lines that endogenously express BCMA (NCI-H929 and MM.1S, respectively). Binding of 15B2GL, 109, L15 to membrane-bound human BCMA was also evaluated in Ad293 cells expressing human BCMA. Binding assays were performed by incubating the anti-BCMA antibodies with 200,000 cells for 30 minutes at 4° C. followed by two washes with PBS+2% FBS (FACS Buffer). A range of antibody concentrations were evaluated using a 12-point, 3-fold dilution series. Cells were then incubated with 5 ug/mL goat-anti human IgG-AF647 secondary antibodies (Thermo Fisher Scientific, Waltham, Mass.) at 4° C., followed by two washes in PBS+2% FBS. Cells were resuspended in 200 uL PBS+2% FBS+DAPI.
(§2) Fluorescence of live, single cells was measured using a BD Biosciences LSRII cytometer and BD FACSDiva™ software (BD Biosciences, San Jose, Calif.). Data were analyzed using FlowJo™ software (FlowJo, LLC, Ashland, Oreg.). Mean fluorescence intensity values were used to determine percentage bound and EC50 was determined using Prism™ software (GraphPad Software Inc, La Jolla, Calif.).

[3] = target: T2, membrane-bound human BCMA; experiment: flow cytometry on NCI-H929 cells (endogenous BCMA), printed as apparent affinity
Description: as §1, §2

[4] = target: T2, membrane-bound human BCMA; experiment: flow cytometry on Ad293 cells expressing human BCMA, printed as apparent affinity
Description: as §1, §2

[5] = target: soluble BCMA (sBCMA) in conditioned media collected from Ad293 cells expressing human BCMA (human) (UniProt Q02223); experiment: cell-based or functional assay
[6] = target: T2, membrane-bound human BCMA; experiment: cell-based or functional assay

Binder	Kd [1] [nM]	EC50 [2] [nM]	EC50 [3] [nM]	EC50 [4] [nM]	Fold loss of potency, killing of MM.1S cells with 0 ng/mL sBCMA (reference) [5] [fold]	Fold loss of potency, killing of MM.1S cells with 75 ng/mL sBCMA [5] [fold]	Fold loss of potency, killing of MM.1S cells with 270 ng/mL sBCMA [5] [fold]	Fold loss of potency, killing of MM.1S cells with 720 ng/mL sBCMA [5] [fold]	IC50 (ng/mL) of killing of MM.1S cells with 0 ng/mL sBCMA [6] [ng/mL]	IC50 (ng/mL) of killing of MM.1S cells with 75 ng/mL sBCMA [6] [ng/mL]	IC50 (ng/mL) of killing of MM.1S cells with 270 ng/mL sBCMA [6] [ng/mL]	IC50 (ng/mL) of killing of MM.1S cells with 720 ng/mL sBCMA [6] [ng/mL]
M02 (lead optimized clone of 15B2GL) (antibody, V domains shown, Cloned into an IgG mammalian expression vector ("Maia") designed for ADC conjugation) VH: EVQLVESGGGLVKPGGSLRLSCAASGFTFSSYSMNWVRQAPGKGLEWVSSISGQSNYIYYADSVKGRFTISRDNAKNSLYLQMNSLRAEDTAVYYCARGGNYYVEYFQYWGQGTLVTVSS VL: EIVLTQSPGTLSLSPGERATLSCRASQYISSNNLAWYQQKPGQAPRLLIYGASNRATGIPDRFSGSGSGTDFTLTISRLEPEDFAVYYCQQYSSDPITFGQGTKLEIK	9.9											
L15 (lead optimized clone of 15B2GL) (antibody, V domains shown, Cloned into an IgG mammalian expression vector ("Maia") designed for ADC conjugation) VH: EVQLVESGGGLVKPGGSLRLSCAASGFTFSSYSMNWVRQAPGKGLEWVSSISGQSNYIYYADSVKGRFTISRDNAKNSLYLQMNSLRAEDTAVYYCARGGNYFVEYFQYWGQGTLVTVSS VL: EIVLTQSPGTLSLSPGERATLSCRASQYISSNNLAWYQQKPGQAPRLLIYGASNRATGIPDRFSGSGSGTDFTLTISRLEPEDFAVYYCQQYADSPITFGQGTKLEIK	4.5	4.2	4.2	4.48								
J6M0-SG3249 antibody-drug conjugate (antibody, INN chains, looked up, V domains shown, SG3249 (tesirine) drug payload) VH: QVQLVQSGAEVKKPGSSVKVSCKASGGTFSNYWMHWVRQAPGQGLEWMGATYRGHSDTYYNQKFKGRVTITADKSTSTAYMELSSLRSEDTAVYYCARGAIYDGYDVLDNWGQGTLVTVSS VL: DIQMTQSPSSLSASVGDRVTITCSASQDISNYLNWYQQKPGKAPKLLIYYTSNLHSGVPSRFSGSGSGTDFTLTISSLQPEDFATYYCQQYRKLPWTFGQGTKLEIK					1	2.66	6.7	19.3	4.82	12.8	32.3	92.9
anti-BCMA antibody J6M0 (antibody, V domains shown) VH: QVQLVQSGAEVKKPGSSVKVSCKASGGTFSNYWMHWVRQAPGQGLEWMGATYRGHSDTYYNQKFKGRVTITADKSTSTAYMELSSLRSEDTAVYYCARGAIYDGYDVLDNWGQGTLVTVSS VL: DIQMTQSPSSLSASVGDRVTITCSASQDISNYLNWYQQKPGKAPKLLIYYTSNLHSGVPSRFSGSGSGTDFTLTISSLQPEDFATYYCQQYRKLPWTFGQGTKLEIK	1	6.65	6.02									
J6M0-mc-MMAF antibody-drug conjugate (antibody, INN chains, looked up, V domains shown, mc-MMAF drug payload) VH: QVQLVQSGAEVKKPGSSVKVSCKASGGTFSNYWMHWVRQAPGQGLEWMGATYRGHSDTYYNQKFKGRVTITADKSTSTAYMELSSLRSEDTAVYYCARGAIYDGYDVLDNWGQGTLVTVSS VL: DIQMTQSPSSLSASVGDRVTITCSASQDISNYLNWYQQKPGKAPKLLIYYTSNLHSGVPSRFSGSGSGTDFTLTISSLQPEDFATYYCQQYRKLPWTFGQGTKLEIK					1	1.9	5.45	49.8	29.3	55.5	160	1460
